Reference: patent US20080299072A1

B1: PEG-2 kDa-RANTES, P13501 24-91 (ligand)
chain: {mPEG‑ButyrALD 2 kDa}-SPYSSDTTPCCFAYIARPLPRAHIKEYFYTSGKCSNPAVVFVTRKNRQVCANPEKKWVREYINSLEMS
B2: Mature wildtype (wt) human RANTES, P13501 24-91 (ligand)
chain: SPYSSDTTPCCFAYIARPLPRAHIKEYFYTSGKCSNPAVVFVTRKNRQVCANPEKKWVREYINSLEMS
B3: PEG-5 kDa-RANTES, P13501 24-91 (ligand)
chain: {mPEG‑ButyrALD 5 kDa}-SPYSSDTTPCCFAYIARPLPRAHIKEYFYTSGKCSNPAVVFVTRKNRQVCANPEKKWVREYINSLEMS

Assays:
CCR5, P51681 [1] = experiment: competition SPA, displacement of 125I-MIP-1α from CCR5 CHO membranes; conditions: remark: other sources report otherwise
CCR5, P51681 [2] = experiment: competition SPA, displacement of 125I-MIP-1α from CCR5 CHO membranes (FIG. 2); conditions: remark: other sources report otherwise

Chain of CCR5, P51681 (P51681 whole entry): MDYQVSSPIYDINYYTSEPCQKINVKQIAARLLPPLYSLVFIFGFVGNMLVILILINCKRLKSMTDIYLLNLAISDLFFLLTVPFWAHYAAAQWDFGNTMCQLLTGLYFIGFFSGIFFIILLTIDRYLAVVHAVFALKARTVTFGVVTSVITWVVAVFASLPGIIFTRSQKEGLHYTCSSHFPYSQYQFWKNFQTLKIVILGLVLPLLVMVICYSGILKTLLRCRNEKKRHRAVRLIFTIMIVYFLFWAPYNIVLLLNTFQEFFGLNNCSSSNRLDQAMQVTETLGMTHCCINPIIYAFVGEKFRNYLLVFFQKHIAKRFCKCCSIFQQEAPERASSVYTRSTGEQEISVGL

Binder	IC50 (CCR5, P51681 [1]) [nM]	IC50 (CCR5, P51681 [2]) [nM]
B1	10.6	3.1
B2	1.6	1.3
B3	2.8	2.2
